# Where “and” joins values, the source holds several entries; their conditions need not be identical. Equal entries are not always repeated.
# Assays:
# [1] = target: CAP256 SU gp140-FL-IP (HIV-1 subtype C (CAP256 SU)); assay: native gel or EMSA; NativePAGE Novex 3-12% Bis-Tris gels (BN-PAGE) of lectin-purified protein, Coomassie stain or anti-gp160 western blot; oligomer judged by molecular weight against NativeMark standard
# [2] = target: CAP256 gp140-FL-IP-His (HIV-1 subtype C (CAP256 SU)); assay: as above
Substance,stoichiometry N [1],stoichiometry N [2]
CAP256 SU gp140-FL-IP (domain or fragment),3,
CAP256 gp140-FL-IP-His (domain or fragment),,3 and 2
